The source of these data is patent publication US8541376B2, “Composition comprising and method of using angiopoietin-like protein 3 ANGPTL3” (Genentech, Inc., priority 2001, dated 2013).

For series [1], the system named is Human microvascular endothelial cells (HMVECs). The series can be described thus: FACS binding of gD-tagged ligands in conditioned media to endothelial cells. Conditions: for binding to HMVEC: conditioned media from transfected 293 cells, gD-tagged ligands, FACS. The method, then:
Because of the structural similarities between Angptl3 and angiopoietins, Angptl3 was tested for the ability to bind, in culture, to primary endothelial cells expressing the Tie2 receptor. Human microvascular endothelial cells (HMVECs), purchased from Cell System (Kirkland, Wash.), maintained in CS-C complete medium containing 10% fetal bovine serum and mitogens according to the recommendations by the supplier, were incubated with conditioned media from transiently transfected 293 cells expressing epitope (gD)-tagged versions of Tie2 ligands angiopoietin 1 and 2 (Ang1 and Ang2), Angptl3, and angiopoietin related protein 1 (ARP1), respectively. ARP1 is a structurally related molecule, consisting of a coiled-coil and a fibrinogen-like domain but unable to bind Tie2, and was used as a negative control.
A general note: Flow cytometry measures light scatter and fluorescence of single cells or particles in a stream.

The target of another series is T1, Tie2 receptor (Homo sapiens, UniProt Q02763).
T1 construct: in conjunction with full length receptor constructs for Tie1 and Tie2, respectively; expressed in transfected cells; host or cells: 293 cells (transient transfection)
T1 sequence (Q02763 23-1124): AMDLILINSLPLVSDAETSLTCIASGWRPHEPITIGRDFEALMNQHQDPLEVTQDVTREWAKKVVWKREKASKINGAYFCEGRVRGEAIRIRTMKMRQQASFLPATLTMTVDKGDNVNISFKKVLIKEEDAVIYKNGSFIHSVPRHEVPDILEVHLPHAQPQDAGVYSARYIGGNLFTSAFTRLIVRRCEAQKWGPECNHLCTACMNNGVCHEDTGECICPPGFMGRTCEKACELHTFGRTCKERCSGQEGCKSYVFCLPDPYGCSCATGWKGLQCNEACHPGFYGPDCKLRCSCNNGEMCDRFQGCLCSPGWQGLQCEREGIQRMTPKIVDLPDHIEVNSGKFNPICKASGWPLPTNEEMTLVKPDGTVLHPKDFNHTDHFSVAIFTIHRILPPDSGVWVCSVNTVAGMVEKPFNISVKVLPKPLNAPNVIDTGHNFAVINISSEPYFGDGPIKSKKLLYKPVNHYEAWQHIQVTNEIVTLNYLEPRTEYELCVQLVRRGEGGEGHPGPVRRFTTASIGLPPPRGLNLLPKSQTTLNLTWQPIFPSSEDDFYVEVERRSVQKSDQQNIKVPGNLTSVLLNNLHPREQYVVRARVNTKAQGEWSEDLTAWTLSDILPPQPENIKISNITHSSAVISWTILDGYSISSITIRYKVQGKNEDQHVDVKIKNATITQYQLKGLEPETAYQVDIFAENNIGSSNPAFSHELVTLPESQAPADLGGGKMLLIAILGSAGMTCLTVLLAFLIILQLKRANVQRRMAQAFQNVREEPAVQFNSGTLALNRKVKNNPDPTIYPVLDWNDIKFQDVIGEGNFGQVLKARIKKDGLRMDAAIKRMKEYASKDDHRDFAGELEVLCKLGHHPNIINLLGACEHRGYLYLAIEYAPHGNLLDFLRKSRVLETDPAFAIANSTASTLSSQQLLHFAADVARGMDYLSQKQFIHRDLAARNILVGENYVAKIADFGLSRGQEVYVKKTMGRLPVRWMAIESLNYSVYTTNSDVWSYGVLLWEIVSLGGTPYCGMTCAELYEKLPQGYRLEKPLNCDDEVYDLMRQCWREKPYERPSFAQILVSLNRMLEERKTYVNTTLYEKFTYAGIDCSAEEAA
The series can be described thus: co-immunoprecipitation in cotransfected 293 cells. In kind it is binding. Conditions: immunoprecipitation with anti-Tie2, anti-gD blot. The method, then:
(§1) To test whether Tie2, the receptor for angiopoetins 1, 2 and 3 (Ang1, Ang2, and Ang3), or Tie1, an orphan receptor with high sequence homology to Tie2, bind to Angptl3, immunoprecipitation experiments were conducted using 293 cells transiently with expression vectors for epitope (gD)-tagged versions of Ang1 and Ang2, Angptl3 and ARP1 in conjunction with full length receptor constructs for Tie1 and Tie2, respectively. Whole cell extracts were prepared by lysis in RIPA buffer (1×PBS; 1% NP40; 0.5% sodium deoxycholate; 0.1% SDS; PMSF, 100 μg/ml; Aprotinin, 30 μl/ml; sodium orthovanadate, 1 μM) containing freshly added protease inhibitors. Extract was incubated with antibodies specific for Tie1 or Tie2 (Santa Cruz Biotechnology, San Diego, Calif.) and the resulting immunoprecipitate was analyzed by SDS-PAGE and immunoblotting. Specifically, proteins resolved by SDS-PAGE and blotted to PVDF membrane were incubated with antibodies against the gD tag or the Tie receptors, respectively.

For a further series, the system named is HMVEC. The series can be described thus: endothelial cell adhesion assay on Angptl3-coated plates. It is filed as cell-based, human. The method, then: (§2) In order to identify potential integrins binding to Angptl3, recombinant Angptl3 proteins were coated onto 96-well flat-bottomed microtiter plates (MaxiSorp, Nunc, Denmark) overnight at 4° C. and blocked with 100 μg/ml BSA in PBS for 1 hour at 37° C. Various 293 cell lines stably transfected with different integrin heterodimers, including IIbIIIa (αIIBβ3), αvβ3, αvβ1 and αvβ5, were tested for their ability to bind Angptl3 coated plates. Cells were harvested and diluted to 10^5 cells/ml in serum-free CS-C medium containing 1% BSA, 1 mM CaCl2 and 1 mM MgCl2. Cells were preincubated with or without blocking antibodies or peptides for 15 minutes at 37° C. and then stimulated with 200 nM PMA. Cell suspensions (10^4 cells/well) were added to the coated wells and the plates were incubated at 37° C. for selected times. Non-adherent cells were removed by PBS washes and cell attachment was measured using the PNAG method of Lanndegren (Landegren, U., J. Immunol. Methods, 67:379-388 (1984)). Results are expressed at mean OD405 values of triplicate wells.
To determine whether the αvβ3 integrin was sufficient to mediate Angptl3 cell adhesion, blocking antibodies or inhibitory peptides were tested for their ability to inhibit the adhesion in the cell adhesion assay. Function blocking antibodies were added to the endothelial cells prior to incubation with the Angptl3-coated wells. […]

The target in a further series is T2, Tie1 receptor (Homo sapiens, UniProt P35590).
T2 construct: in conjunction with full length receptor constructs for Tie1 and Tie2, respectively; expressed in transfected cells; host or cells: 293 cells (transient transfection)
The series can be described thus: co-immunoprecipitation in cotransfected 293 cells. In kind it is binding. Particulars: immunoprecipitation with anti-Tie1, anti-gD blot. The method, then:
as §1

The next series has as its target T3, αvβ3 integrin (Homo sapiens, UniProt P05106+P06756).
T3 construct: expressed in transfected cells
The series is described as follows: adhesion of integrin-transfected 293 cell lines to Angptl3-coated plates. It is filed as cell-based. Particulars: plates coated with 20 μg/ml hAngptl3, 4 hours; compared to cell lines expressing αIIbβ3, αvβ1, αvβ5. The method, then: as §2

Another series concerns rat cornea. The series is described as follows: rat cornea in vivo angiogenesis assay. Conditions: for angiogenic response compared to levels obtained for VEGF: Angptl3 500 ng vs VEGF 100 ng. The method, then: In order to test whether Angptl3 was capable to induce an in vivo angiogenic response in the rat cornea, […] pellets containing murine and human Angptl3 (500 ng) as well as human VEGF (100 ng) were implanted separately or in combination as described previously (Xin et al., J. Biol. Chem., 274:[…] (1999)). Hydron pellets containing excipient (control, murine or human Angptl3 (500 ng), VEGF (100 ng), or the combination of murine or human Angptl3 (500 ng) and VEGF (100 ng) were implanted into the corneas of 250 to 300 g male Sprague-Dawley rates. All hydron pellets contained 100 ng of sucralfate. […] Corneal whole mounts were made of the enucleated eyes and analyzed for neovascular areas using a computer-assisted image analysis (Image Pro-Plus 2.0, Silver Spring, Md.). In contrast to previous reports focusing on the effects of angiopoietin 1 and 2 when tested in the corneal angiogenesis assay (Asahara et al., Circ. […] These findings might reflect the interdependent signal transduction pathways engaged by both ligands (Byzova et al., Mol. Cell. 6:852-60 (2000)).

Series [2] relates to freshly isolated murine hepatocytes. The series is described as follows: cell adhesion on protein-coated plates, hepatocytes. Particulars: dishes coated with recombinant mAngptl3 (FIG. 13 legend), 200 nM PMA. In kind it is cell-based, mouse. The method, then:
96-well flat-bottomed plates (MaxiSorp, Nunc, Denmark) were coated overnight at 4° C. with the indicated concentrations of proteins and blocked with 3% BSA in PBS for 1 hour at 37° C. Primary human dermal endothelial cells (HMVECs) and freshly isolated murine hepatocytes that were prepared from the livers of adult C57/B16 mice using the method described in LeCouter et al (LeCouter et al., 2001) were harvested and diluted to 10^5 cells/ml in serum-free CS-C medium containing 1% BSA, 1 mM CaCl2 and 1 mM MgCl2 in the presence of 200 nM PMA. […] Cell suspensions (10^4 cells/well) were added to the coated wells and the plates were incubated at 37° C. for selected times. Non-adherent cells were removed by PBS washes and cell attachment was measured using the PNAG method of Landegren (Landegren, 1984). Results were expressed at mean OD405 values of triplicate wells.

In a further series the target is LFA1 (Homo sapiens, UniProt P05107+P20701). Conditions: ELISA in vitro (Camenisch et al., 2002); cited from earlier work. (In general: An ELISA detects its analyte on a solid surface through an enzyme-linked reagent.)
LFA1, sequence (P20701 26-1170): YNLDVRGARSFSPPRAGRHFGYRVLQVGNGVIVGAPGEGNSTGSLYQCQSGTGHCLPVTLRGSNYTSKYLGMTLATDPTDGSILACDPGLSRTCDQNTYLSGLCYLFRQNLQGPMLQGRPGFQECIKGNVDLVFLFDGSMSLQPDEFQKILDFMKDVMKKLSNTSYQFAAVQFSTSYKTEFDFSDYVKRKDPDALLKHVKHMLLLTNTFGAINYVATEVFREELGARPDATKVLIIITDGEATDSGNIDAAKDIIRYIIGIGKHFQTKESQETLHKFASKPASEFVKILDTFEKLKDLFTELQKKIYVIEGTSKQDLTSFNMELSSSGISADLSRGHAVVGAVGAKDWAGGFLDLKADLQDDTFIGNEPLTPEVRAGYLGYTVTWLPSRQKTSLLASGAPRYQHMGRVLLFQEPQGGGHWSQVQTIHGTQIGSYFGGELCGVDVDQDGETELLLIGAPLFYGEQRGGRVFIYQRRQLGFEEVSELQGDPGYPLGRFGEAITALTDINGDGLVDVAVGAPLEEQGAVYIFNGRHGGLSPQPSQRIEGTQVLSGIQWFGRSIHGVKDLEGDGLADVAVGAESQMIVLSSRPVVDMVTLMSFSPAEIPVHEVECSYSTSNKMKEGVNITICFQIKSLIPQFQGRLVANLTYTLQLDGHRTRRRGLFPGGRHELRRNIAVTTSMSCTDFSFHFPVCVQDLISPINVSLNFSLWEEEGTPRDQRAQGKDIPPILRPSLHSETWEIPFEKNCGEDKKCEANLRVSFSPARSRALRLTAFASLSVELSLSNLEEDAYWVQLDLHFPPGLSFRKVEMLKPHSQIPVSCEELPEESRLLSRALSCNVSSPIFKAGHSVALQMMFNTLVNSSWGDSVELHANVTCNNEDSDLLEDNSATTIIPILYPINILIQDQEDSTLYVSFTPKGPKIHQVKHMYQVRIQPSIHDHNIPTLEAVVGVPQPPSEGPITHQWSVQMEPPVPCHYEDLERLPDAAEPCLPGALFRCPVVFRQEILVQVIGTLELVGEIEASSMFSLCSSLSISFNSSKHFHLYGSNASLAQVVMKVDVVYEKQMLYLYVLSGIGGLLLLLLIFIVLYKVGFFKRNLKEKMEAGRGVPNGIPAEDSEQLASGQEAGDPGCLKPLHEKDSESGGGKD
LFA1, sequence (P05107 23-769): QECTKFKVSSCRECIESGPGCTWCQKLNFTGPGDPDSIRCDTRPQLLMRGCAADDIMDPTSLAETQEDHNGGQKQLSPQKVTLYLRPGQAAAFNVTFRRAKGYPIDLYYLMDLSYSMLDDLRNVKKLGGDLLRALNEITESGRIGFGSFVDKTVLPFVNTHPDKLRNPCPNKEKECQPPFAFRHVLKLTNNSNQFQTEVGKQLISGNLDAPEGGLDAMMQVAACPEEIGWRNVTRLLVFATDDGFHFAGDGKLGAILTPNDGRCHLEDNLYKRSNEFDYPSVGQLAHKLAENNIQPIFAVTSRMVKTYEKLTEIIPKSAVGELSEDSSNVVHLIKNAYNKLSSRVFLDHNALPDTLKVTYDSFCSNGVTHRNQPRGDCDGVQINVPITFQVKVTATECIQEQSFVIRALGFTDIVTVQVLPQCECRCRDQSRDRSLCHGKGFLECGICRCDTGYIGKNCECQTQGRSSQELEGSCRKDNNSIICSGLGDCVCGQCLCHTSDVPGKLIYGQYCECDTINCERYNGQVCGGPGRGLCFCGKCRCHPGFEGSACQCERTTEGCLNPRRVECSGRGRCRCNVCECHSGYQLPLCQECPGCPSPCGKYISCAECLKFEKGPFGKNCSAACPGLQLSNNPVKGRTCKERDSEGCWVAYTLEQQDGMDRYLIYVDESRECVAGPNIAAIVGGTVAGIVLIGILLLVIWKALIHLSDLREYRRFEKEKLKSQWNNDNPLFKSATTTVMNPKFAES
Another series addresses Mac-1 (Homo sapiens, UniProt P05107+P11215). Conditions: ELISA in vitro (Camenisch et al., 2002); cited from earlier work.

Mac-1, sequence (P05107 23-769, other chains not shown): as the sequence (P05107 23-769) above
T3 sequence (P06756 31-889 limits assumed): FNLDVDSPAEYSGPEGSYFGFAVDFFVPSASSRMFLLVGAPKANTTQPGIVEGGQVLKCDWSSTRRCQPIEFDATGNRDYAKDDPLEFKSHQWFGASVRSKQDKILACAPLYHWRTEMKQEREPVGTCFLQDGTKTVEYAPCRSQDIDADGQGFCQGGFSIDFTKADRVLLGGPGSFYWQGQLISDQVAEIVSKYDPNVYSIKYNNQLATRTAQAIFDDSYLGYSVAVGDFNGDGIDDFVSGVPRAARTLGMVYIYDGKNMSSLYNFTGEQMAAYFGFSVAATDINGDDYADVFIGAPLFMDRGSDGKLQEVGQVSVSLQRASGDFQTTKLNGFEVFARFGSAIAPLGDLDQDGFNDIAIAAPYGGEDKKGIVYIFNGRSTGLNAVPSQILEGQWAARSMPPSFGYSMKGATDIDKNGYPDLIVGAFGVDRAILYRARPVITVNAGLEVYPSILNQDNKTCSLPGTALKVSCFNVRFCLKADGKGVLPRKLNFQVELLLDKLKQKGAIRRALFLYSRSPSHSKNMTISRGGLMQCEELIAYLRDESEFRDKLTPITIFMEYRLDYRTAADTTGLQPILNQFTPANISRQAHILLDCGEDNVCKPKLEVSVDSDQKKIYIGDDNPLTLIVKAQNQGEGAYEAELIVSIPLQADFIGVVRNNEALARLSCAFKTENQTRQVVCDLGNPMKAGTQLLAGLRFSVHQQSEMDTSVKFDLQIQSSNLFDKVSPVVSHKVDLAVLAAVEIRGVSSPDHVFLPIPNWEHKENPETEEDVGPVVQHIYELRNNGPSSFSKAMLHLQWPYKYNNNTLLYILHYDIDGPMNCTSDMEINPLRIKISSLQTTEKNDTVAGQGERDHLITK
T3 sequence (P06756 891-1048 limits assumed): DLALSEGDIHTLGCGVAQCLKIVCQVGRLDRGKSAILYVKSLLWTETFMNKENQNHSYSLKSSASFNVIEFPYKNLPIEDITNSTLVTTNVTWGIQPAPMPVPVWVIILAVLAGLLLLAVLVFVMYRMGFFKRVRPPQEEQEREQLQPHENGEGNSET
T3 sequence (P05106 27-788): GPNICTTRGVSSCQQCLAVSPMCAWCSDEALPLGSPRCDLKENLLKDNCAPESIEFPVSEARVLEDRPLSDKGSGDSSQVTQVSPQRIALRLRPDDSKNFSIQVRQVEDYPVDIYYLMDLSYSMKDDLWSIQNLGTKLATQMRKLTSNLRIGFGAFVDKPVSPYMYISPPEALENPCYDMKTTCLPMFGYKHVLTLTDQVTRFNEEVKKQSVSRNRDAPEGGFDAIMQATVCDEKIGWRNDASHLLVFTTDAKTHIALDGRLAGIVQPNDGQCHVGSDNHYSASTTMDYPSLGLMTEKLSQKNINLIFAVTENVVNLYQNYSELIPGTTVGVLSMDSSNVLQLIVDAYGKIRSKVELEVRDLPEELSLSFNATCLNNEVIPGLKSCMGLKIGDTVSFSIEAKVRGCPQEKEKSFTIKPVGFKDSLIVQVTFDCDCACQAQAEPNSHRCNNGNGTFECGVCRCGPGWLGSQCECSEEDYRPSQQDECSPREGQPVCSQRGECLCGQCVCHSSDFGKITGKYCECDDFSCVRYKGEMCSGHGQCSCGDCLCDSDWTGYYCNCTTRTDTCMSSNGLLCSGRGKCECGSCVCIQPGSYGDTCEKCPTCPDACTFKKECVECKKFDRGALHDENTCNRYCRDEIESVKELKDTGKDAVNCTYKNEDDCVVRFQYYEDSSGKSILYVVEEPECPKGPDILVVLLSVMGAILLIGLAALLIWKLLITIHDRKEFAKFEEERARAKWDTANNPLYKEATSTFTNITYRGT

“Ang2: epitope (gD)-tagged Tie2 ligand angiopoietin 2 [reference compound]”: in series [1], the “binding to HMVEC” value is reported as “strongly bound”. Further, the “binding to Tie2” value in the series with Tie2 receptor is on record as “Tie2 binding”.

For `O=C(O)CN(CCN(CC(=O)O)CC(=O)O)CC(=O)O` [EDTA, reference compound], the “effect of EDTA on endothelial cell adhesion to Angptl3” value in the series with HMVEC (EDTA 10 mM) is listed as “completely abolished”.

B1: ARP1: angiopoietin related protein 1, unable to bind Tie2, negative control (protein, UniProt O95841 24-491, looked up)
Angiopoietin-related protein 1: GQFKIKKINQRRYPRATDGKEEAKKCAYTFLVPEQRITGPICVNTKGQDASTIKDMITRMDLENLKDVLSRQKREIDVLQLVVDVDGNIVNEVKLLRKESRNMNSRVTQLYMQLLHEIIRKRDNSLELSQLENKILNVTTEMLKMATRYRELEVKYASLTDLVNNQSVMITLLEEQCLRIFSRQDTHVSPPLVQVVPQHIPNSQQYTPGLLGGNEIQRDPGYPRDLMPPPDLATSPTKSPFKIPPVTFINEGPFKDCQQAKEAGHSVSGIYMIKPENSNGPMQLWCENSLDPGGWTVIQKRTDGSVNFFRNWENYKKGFGNIDGEYWLGLENIYMLSNQDNYKLLIELEDWSDKKVYAEYSSFRLEPESEFYRLRLGTYQGNAGDSMMWHNGKQFTTLDRDKDMYAGNCAHFHKGGWWYNACAHSNLNGVWYRGGHYRSKHQDGIFWAEYRGGSYSLRAVQMMIKPID
For the molecule B1, the “binding to HMVEC” value in series [1] is reported as “no binding was observed”.

B2: Angptl3: angiopoietin-like protein 3, native human sequence SEQ ID NO: 2; recombinant gD-tagged secreted glycoprotein (protein, listed as Homo sapiens)
chain: MFTIKLLLFIVPLVISSRIDQDNSSFDSLSPEPKSRFAMLDDVKILANGLLQLGHGLKDFVHKTKGQINDIFQKLNIFDQSFYDLSLQTSEIKEEEKELRRTTYKLQVKNEEVKNMSLELNSKLESLLEEKILLQQKVKYLEEQLTNLIQNQPETPEHPEVTSLKTFVEKQDNSIKDLLQTVEDQYKQLNQQHSQIKEIENQLRRTSIQEPTEISLSSKPRAPRTTPFLQLNEIRNVKHDGIPAECTTIYNRGEHTSGMYAIRPSNSQVFHVYCDVISGSPWTLIQHRIDGSQNFNETWENYKYGFGRLDGEFWLGLEKIYSIVKQSNYVLRIELEDWKDNKHYIEYSFYLGNHETNYTLHLVAITGNVPNAIPENKDLVFSTWDHKAKGHFNCPEGYSGGWWWHDECGENNLNGKYNKPRAKSKPERRRGLSWKSQNGRLYSIKSTKMLIHPTDSESFE
modifications: gD tag
notes: recombinant gD-tagged secreted glycoprotein
As to B2, the “binding to HMVEC after exposure of cells to hypoxia or VEGF” value in series [1] (cells exposed to hypoxia or VEGF, data not shown) is “significantly increased”. For the same molecule, the “binding to HMVEC” value in series [1] was “strongly bound”. For the same molecule, in the series with Tie1 receptor, the “binding to Tie1” value was “did not bind”. Besides, in the series with Tie2 receptor, the “binding to Tie2” value is “did not bind”. The “induction of endothelial cell adhesion” value in the series with HMVEC (increasing coating amounts of hAngptl3, within 4 hours) is “robust, dose-dependent adhesion”. The “adherence of 293 cells expressing αvβ3 to Angptl3” value in the series with αvβ3 integrin is “marked increased”. For the same molecule, the “in vivo angiogenic response in rat cornea” value with rat cornea (500 ng in hydron pellet, alone, 5 days after pellet implantation) is reported as “strong angiogenic response”. Moreover, in the series on rat cornea, the “angiogenic response compared to levels obtained for VEGF” value is “comparable”. Besides, the hepatocyte adhesion entry in series [2] is listed as “Coating-concentration dependent”. The “binding to LFA1” value in the series with LFA1 is given as “did not bind”. The “binding to Mac-1” value with Mac-1 is “did not bind”.

B3: murine Angptl3: recombinant mouse Angptl3 overexpressed in CHO cells (protein, UniProt Q9R182 17-455, looked up)
Angiopoietin-related protein 3: SRVDPDLSSFDSAPSEPKSRFAMLDDVKILANGLLQLGHGLKDFVHKTKGQINDIFQKLNIFDQSFYDLSLRTNEIKEEEKELRRTTSTLQVKNEEVKNMSVELNSKLESLLEEKTALQHKVRALEEQLTNLILSPAGAQEHPEVTSLKSFVEQQDNSIRELLQSVEEQYKQLSQQHMQIKEIEKQLRKTGIQEPSENSLSSKSRAPRTTPPLQLNETENTEQDDLPADCSAVYNRGEHTSGVYTIKPRNSQGFNVYCDTQSGSPWTLIQHRKDGSQDFNETWENYEKGFGRLDGEFWLGLEKIYAIVQQSNYILRLELQDWKDSKHYVEYSFHLGSHETNYTLHVAEIAGNIPGALPEHTDLMFSTWNHRAKGQLYCPESYSGGWWWNDICGENNLNGKYNKPRTKSRPERRRGIYWRPQSRKLYAIKSSKMMLQPTT
B3: in the series on rat cornea (500 ng each), the “potency in inducing angiogenesis compared to the recombinant human protein” value is given as “slightly more potent”. The “angiogenic response compared to levels obtained for VEGF” value in the series with rat cornea was “comparable”.

B4: Ang1: epitope (gD)-tagged Tie2 ligand angiopoietin 1 (protein, listed as Homo sapiens)
chain: RDCADVYQAGFNKSGIYTIYINNMPEPKKVFCNMDVNGGGWTVIQHREDGSLDFQRGWKEYKMGFGNPSGEYWLGNEFIFAITSQRQYMLRIELMDWEGNRAYSQYDRFHIGNEKQNYRLYLKGHTGTAGKQSSLILHGADFSTKDADNDNCMCKCALMLTGGWWFDACGPSNLNGMFYTAGQNHGKLNGIKWHYFKGPSYSLRSTTMMIRPLDF
modifications: gD epitope tag
For the molecule B4, the “binding to Tie2” value with Tie2 receptor is recorded as “Tie2 binding”.
